According to patent publication US20070202045A1 (published 2007):
Read-outs that look alike come from different tables or passages of the source. Bridges are numbered along the chain shown (N, C = ends). Where no end group is shown, it is not given here.

Tests used:
[1] = target: T1, rat albumin (rat, UniProt P02770 25-608); test: phage ELISA
T1 construct: bought (Sigma); also called rat SA; RSA

[2] = target: T2, rabbit albumin (rabbit, UniProt P49065 25-608); test: SA08b competition ELISA
T2 construct: bought (Sigma); also called rabbit SA; BuSA

[3] = target: T1, rat albumin; test: SA08b competition ELISA
[4] = target: T3, mouse albumin (mouse, UniProt P07724 25-608); test: SA08b competition ELISA
T3 construct: bought (Sigma); also called MSA; MuSA

[5] = target: T2, rabbit albumin; test: SA08b competition ELISA; remark: listed apart in the source
[6] = target: T2, rabbit albumin; test: SA08b competition ELISA; remark: listed apart in the source
[7] = target: T1, rat albumin; test: SA08b competition ELISA; remark: listed apart in the source
[8] = target: T3, mouse albumin; test: SA08b competition ELISA; remark: listed apart in the source
[9] = target: T2, rabbit albumin; test: SA08b peptide competition ELISA
[10] = target: T3, mouse albumin; test: SA08b peptide competition ELISA
[11] = target: T2, rabbit albumin; test: SPR (BIAcore), albumin immobilized
Description: (§1) Binding affinities between SA peptides and album were obtained using a BIAcore 3000 (BIAcore, Inc., Piscataway, N.J.). Albumin was captured in a CM5 chip using amine coupling at approximately 5000 resonance units (RU).
(§2) The signal from an injection passing over an uncoupled cell was subtracted from that of an immobilized cell to generate sensongrams corresponding to the amount of peptide bound as a function of time. The running buffer, PBS containing 0.05% TWEEN-20T, was used for all sample dilutions. BIAcore kinetic evaluation software (v 3.1) was used to determine the dissociation constant (Kd) from the association and dissociation rates, using a one to one binding model.

[12] = target: T1, rat albumin; test: SPR (BIAcore), albumin immobilized
Description: as §1, §2

[13] = target: T4, human albumin (human, UniProt P02768 25-609); test: SPR (BIAcore), albumin immobilized
T4 construct: bought (Sigma); also called human SA; HuSA
Description: as §1, §2

[14] = target: T2, rabbit albumin; test: SA08b competition ELISA; remark: listed apart in the source

T1 sequence (P02770 25-608 limits assumed): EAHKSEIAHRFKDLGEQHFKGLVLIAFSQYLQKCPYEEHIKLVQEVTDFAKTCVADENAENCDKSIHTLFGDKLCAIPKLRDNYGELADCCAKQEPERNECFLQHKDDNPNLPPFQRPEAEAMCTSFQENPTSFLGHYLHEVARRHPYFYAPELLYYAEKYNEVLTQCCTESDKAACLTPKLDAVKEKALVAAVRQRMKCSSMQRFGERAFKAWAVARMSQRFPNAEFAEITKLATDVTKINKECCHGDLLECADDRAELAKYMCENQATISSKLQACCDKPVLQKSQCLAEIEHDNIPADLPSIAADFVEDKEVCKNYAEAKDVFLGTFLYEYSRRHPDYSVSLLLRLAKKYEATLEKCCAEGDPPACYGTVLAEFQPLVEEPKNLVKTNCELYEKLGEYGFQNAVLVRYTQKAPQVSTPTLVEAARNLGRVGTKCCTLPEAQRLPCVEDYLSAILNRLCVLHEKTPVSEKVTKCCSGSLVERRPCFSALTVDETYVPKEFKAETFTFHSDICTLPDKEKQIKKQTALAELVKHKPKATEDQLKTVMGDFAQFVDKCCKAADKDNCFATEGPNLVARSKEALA
T2 sequence (P49065 25-608 limits assumed): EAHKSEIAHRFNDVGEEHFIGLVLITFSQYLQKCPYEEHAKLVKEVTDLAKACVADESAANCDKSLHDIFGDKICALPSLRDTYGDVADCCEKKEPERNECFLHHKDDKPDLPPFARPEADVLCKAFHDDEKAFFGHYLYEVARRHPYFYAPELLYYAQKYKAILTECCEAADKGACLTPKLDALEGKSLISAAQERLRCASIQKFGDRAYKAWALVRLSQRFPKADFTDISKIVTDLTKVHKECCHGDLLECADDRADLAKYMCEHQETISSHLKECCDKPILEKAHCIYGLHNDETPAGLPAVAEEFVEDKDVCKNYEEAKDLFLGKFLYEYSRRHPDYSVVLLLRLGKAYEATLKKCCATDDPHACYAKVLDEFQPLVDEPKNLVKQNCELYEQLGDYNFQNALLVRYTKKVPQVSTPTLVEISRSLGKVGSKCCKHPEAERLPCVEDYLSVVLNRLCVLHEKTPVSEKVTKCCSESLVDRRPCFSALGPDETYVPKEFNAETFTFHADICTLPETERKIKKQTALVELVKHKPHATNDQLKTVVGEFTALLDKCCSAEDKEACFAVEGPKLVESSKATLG
T3 sequence (P07724 25-608 limits assumed): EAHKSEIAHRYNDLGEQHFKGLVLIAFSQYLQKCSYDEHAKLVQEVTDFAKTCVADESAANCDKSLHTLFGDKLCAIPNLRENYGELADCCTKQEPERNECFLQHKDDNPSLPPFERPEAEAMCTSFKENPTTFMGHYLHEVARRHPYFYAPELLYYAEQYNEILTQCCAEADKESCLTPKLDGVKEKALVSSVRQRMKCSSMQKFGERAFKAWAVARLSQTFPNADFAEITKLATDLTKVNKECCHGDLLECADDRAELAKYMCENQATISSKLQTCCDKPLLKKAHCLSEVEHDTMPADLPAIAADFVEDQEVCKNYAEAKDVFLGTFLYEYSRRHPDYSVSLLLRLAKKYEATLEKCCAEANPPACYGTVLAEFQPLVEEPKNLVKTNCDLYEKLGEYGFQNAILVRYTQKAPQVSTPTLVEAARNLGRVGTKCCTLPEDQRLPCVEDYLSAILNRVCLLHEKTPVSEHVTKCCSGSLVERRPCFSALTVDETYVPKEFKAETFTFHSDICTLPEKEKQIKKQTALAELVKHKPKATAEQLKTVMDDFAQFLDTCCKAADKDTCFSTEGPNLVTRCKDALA

Row | Binder | IC50 [2] [nM] | IC50 [3] [nM] | IC50 [4] [nM] | IC50 [5] [nM] | further results
1 | DLCLRDWGCLW (not fully specified (C-terminus); cysteine pairing not given here) [RC] |  |  |  |  | binding result [1]: binds
2 | DICLPRWGCLW-NH2 (disulfide 3-9 (inferred), synthetic; disulfide oxidised) [SA04] | 8540 | 787 | 40 | 8540 | 
3 | MEDICLPRWGCLWED-NH2 (disulfide 5-11 (inferred), synthetic; disulfide oxidised) [SA05] | 804 | 161 | 6 |  | 
4 | Ac-IEDICLPRWGCLWED-NH2 (disulfide 5-11 (inferred), synthetic) [SA24] |  |  |  | 1380 | 
5 | QRLMEDICLPRWGCLWEDDF-NH2 (disulfide 8-14, synthetic; disulfide oxidised) [SA06] | 128 | 68 | 8 |  | IC50 [6]: 128 nM; IC50 [7]: 68 nM; IC50 [8]: 8 nM; IC50 [9]: 130 nM; IC50 [10]: 6 nM; Kd [11]: 143 nM; Kd [12]: 229 nM
6 | QGLIGDICLPRWGCLWGDSV-NH2 (disulfide 8-14 (inferred), synthetic; disulfide oxidised; printed ...GDSV here) [SA07] | 30 | 35 | 6 |  | 
7 | Ac-QGLIGDICLPRWGCLWGDSVK-NH2 (disulfide 8-14 (inferred), synthetic; disulfide oxidised) [SA08] | 63 | 68 | 10 |  | IC50 [10]: 12 nM; Kd [11]: 108 nM; Kd [13]: 858 nM; Kd [12]: 158 nM
8 | Ac-EDICLPRWGCLWEDD-NH2 (disulfide 4-10 (inferred), synthetic; disulfide oxidised) [SA09] | 1690 | 258 | 6 |  | 
9 | Ac-RLMEDICLPRWGCLWEDD-NH2 (disulfide 7-13 (inferred), synthetic; disulfide oxidised) [SA10] | 86 | 77 |  |  | 
10 | Ac-RLMEDICLARWGCLWEDD-NH2 (disulfide 7-13 (inferred), synthetic; disulfide oxidised) [SA13] | 3200 | 2480 | 188 |  | 
11 | Ac-RLIEDICLPRWGCLWEDD-NH2 (disulfide 7-13 (inferred), synthetic; disulfide oxidised) [SA21] |  |  |  | 270 | IC50 [9]: 270 nM; IC50 [10]: 7 nM; Kd [11]: 320 nM
12 | Ac-MEDICLPRWGCLWEDD-NH2 (disulfide 5-11 (inferred), synthetic; disulfide oxidised) [SA11] | 1210 | 232 | 17 |  | 
13 | Ac-MEDICLPRWGCLWED-NH2 (disulfide 5-11 (inferred), synthetic; disulfide oxidised) [SA12] | 1760 | 205 | 13 |  | 
14 | GEWWEDICLPRWGCLWEEED-NH2 (disulfide 8-14 (inferred), synthetic) [SA15] |  |  |  |  | IC50 [9]: 13 nM; IC50 [10]: 5 nM; Kd [11]: 65 nM; Kd [13]: 878 nM; Kd [12]: 150 nM
15 | Ac-RLIEDICLPRWGCL-NH2 (disulfide 7-13 (inferred), synthetic) [SA33] |  |  |  | 4310 | fold improvement of IC50 over the core sequence (SA34 and SA19) [14]: ~6 fold
16 | Ac-DICLPRWGCLWED-NH2 (disulfide 3-9 (inferred), synthetic) [SA26] |  |  |  | 3120 | fold improvement of IC50 over the core sequence (SA34 and SA19) [14]: ~8.6 fold
17 | Ac-RLIEDICLPRWGCLWED-NH2 (disulfide 7-13 (inferred), synthetic) [SA22] |  |  |  | 430 | fold improvement of IC50 over the core sequence (SA34 and SA19) [14]: 60 fold
18 | Ac-QRLIEDICLPRWGCLWEDDF-NH2 (disulfide 8-14 (inferred), synthetic) [SA20] |  |  |  | 260 | 
19 | Ac-RLIEDICLPRWGCLWE-NH2 (disulfide 7-13 (inferred), synthetic) [SA29] |  |  |  | 400 | 
20 | Ac-RLIEDICLPRWGCLW-NH2 (disulfide 7-13 (inferred), synthetic) [SA31] |  |  |  | 200 | 
21 | Ac-LIEDICLPRWGCLWED-NH2 (disulfide 6-12 (inferred), synthetic) [SA23] |  |  |  | 360 | 
22 | Ac-EDICLPRWGCLWED-NH2 (disulfide 4-10 (inferred), synthetic) [SA25] |  |  |  | 2730 | 
23 | Ac-ICLPRWGCLWED-NH2 (disulfide 2-8 (inferred), synthetic) [SA27] |  |  |  | 86700 | 
24 | Ac-IEDICLPRWGCLWE-NH2 (disulfide 5-11 (inferred), synthetic) [SA30] |  |  |  | 1800 | 
25 | Ac-EDICLPRWGCLW-NH2 (disulfide 4-10 (inferred), synthetic) [SA32] |  |  |  | 2170 | 
26 | Ac-DICLPRWGCL-NH2 (disulfide 3-9 (inferred), synthetic) [SA34] |  |  |  | 28200 | 
27 | DICLPRWGCL-NH2 (disulfide 3-9 (inferred), synthetic) [SA19] |  |  |  | 24500 | 
28 | ICLPRWGCLW-NH2 (disulfide 2-8 (inferred), synthetic) [SA18] |  |  |  | 125000 | 
